Results taken from patent US20200048328A1 (Bristol-Myers Squibb, published 2020).

Columns and labels:
human serum albumin [1] = biological target: T1, human serum albumin (human, UniProt P02768 25-609); assay: SPR, albumin immobilized;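 also: biacore CM5 surface plasmon resonance with serum albumin coupled to the chip, 3 min association then 6-10 min dissociation, rates from a 1:1 model fit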
T1 construct: immobilized on chips or coated on plates elsewhere; also called HSA; HuSA
Description: (§1) To determine the kinetics of binding to human, rhesus, and mouse serum albumin, as well as whether binding was retained at both physiological and endosomal pHs, the respective serum albumins were immobilized on a Biacore CMS chip to a surface density of ˜1200 RU using standard NHS/EDC coupling. […] Kinetic measurements were carried out using a 3 min association and 6-10 min dissociation phase. Kinetic traces of reference-subtracted sensorgrams were fit to a 1:1 binding model using the Biaevaluation software.
(§2) In addition, binding to albumin was carried out under various pH conditions ranging from pH 5.5 to pH 7.4.

rhesus serum albumin [2] = biological target: T2, rhesus serum albumin (rhesus, UniProt Q28522 17-600); assay: SPR, albumin immobilized;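 also: biacore CM5 surface plasmon resonance with serum albumin coupled to the chip, 3 min association then 6-10 min dissociation, rates from a 1:1 model fit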
T2 construct: also called RhSA; Rh-SA
Description: as §1, §2

mouse serum albumin [3] = biological target: T3, mouse serum albumin (mouse, UniProt P07724 25-608); assay: SPR, albumin immobilized;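 also: biacore CM5 surface plasmon resonance with serum albumin coupled to the chip, 3 min association then 6-10 min dissociation, rates from a 1:1 model fit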
T3 construct: also called MSA; MuSA
Description: as §1, §2

cynomolgus serum albumin = biological target: T4, cynomolgus serum albumin (cynomolgus, UniProt A2V9Z4 25-608); assay: SPR, albumin immobilized;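 also: biacore CM5 surface plasmon resonance with serum albumin coupled to the chip, 3 min association then 6-10 min dissociation, rates from a 1:1 model fit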
T4 construct: also called cynoSA; CySA
Description: as §1, §2

rat serum albumin = biological target: T5, rat serum albumin (rat, UniProt P02770 25-608); assay: SPR, albumin immobilized
T5 construct: also called Rat SA; RSA
Description: as §1, §2

human serum albumin [4] = biological target: T1, human serum albumin; assay: SPR, albumin immobilized, acetate pH 5.5
rhesus serum albumin [5] = biological target: T2, rhesus serum albumin; assay: SPR, albumin immobilized, acetate pH 5.5
mouse serum albumin [6] = biological target: T3, mouse serum albumin; assay: SPR, albumin immobilized, acetate pH 5.5

T4 sequence (A2V9Z4 25-608 limits assumed): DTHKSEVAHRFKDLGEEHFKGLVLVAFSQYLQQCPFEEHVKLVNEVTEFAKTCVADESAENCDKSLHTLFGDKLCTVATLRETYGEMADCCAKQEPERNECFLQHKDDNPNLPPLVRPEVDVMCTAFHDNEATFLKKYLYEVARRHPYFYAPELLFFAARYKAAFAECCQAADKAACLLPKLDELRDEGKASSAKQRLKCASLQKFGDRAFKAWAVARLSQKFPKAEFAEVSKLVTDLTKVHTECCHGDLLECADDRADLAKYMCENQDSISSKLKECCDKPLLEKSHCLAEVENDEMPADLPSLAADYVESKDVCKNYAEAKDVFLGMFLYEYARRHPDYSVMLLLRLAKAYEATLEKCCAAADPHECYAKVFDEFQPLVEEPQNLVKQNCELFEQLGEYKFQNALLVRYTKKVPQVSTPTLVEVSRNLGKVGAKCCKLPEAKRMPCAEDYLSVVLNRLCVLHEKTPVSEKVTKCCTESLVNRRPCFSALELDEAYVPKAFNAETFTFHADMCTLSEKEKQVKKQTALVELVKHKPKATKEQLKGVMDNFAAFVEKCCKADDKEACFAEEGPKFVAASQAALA
T2 sequence (Q28522 17-600 limits assumed): as the sequence (A2V9Z4 25-608 limits assumed) above
T3 sequence (P07724 25-608 limits assumed): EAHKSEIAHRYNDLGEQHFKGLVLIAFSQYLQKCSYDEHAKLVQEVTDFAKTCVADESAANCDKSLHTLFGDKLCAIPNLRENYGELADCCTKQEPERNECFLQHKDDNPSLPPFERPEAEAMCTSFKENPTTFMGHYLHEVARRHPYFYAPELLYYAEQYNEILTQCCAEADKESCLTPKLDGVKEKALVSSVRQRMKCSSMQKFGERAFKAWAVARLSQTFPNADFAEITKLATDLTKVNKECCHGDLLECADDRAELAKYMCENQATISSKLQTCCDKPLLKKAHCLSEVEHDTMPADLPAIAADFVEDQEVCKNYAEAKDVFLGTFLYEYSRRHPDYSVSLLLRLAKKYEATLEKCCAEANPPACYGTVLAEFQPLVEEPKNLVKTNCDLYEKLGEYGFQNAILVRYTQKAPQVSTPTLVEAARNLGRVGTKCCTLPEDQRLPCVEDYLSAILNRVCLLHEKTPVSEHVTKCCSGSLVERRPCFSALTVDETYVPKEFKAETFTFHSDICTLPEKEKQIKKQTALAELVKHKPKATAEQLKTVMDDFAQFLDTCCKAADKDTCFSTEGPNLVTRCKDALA
T5 sequence (P02770 25-608 limits assumed): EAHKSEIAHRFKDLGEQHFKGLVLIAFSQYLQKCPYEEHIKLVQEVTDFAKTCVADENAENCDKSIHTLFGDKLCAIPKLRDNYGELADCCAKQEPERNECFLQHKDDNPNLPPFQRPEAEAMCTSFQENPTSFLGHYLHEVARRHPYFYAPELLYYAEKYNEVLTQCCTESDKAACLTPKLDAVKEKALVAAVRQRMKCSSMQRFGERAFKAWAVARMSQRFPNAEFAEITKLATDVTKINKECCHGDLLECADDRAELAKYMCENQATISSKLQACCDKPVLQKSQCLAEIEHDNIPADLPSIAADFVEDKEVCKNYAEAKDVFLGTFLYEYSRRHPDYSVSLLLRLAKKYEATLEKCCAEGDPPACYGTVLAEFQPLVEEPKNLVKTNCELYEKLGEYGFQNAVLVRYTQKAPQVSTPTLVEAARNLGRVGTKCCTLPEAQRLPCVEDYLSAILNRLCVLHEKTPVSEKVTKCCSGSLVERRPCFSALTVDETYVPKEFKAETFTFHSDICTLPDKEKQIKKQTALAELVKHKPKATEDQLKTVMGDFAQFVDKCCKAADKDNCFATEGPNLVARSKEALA

Kd (human serum albumin [1]): 3.2 nM | koff (human serum albumin [1]): 0.000185 s⁻¹ | kon (human serum albumin [1]): 61000 M⁻¹ s⁻¹ | Kd (rhesus serum albumin [2]): 3.4 nM | koff (rhesus serum albumin [2]): 0.00024 s⁻¹ | kon (rhesus serum albumin [2]): 73900 M⁻¹ s⁻¹ | Kd (mouse serum albumin [3]): 2.4 nM | koff (mouse serum albumin [3]): 0.000531 s⁻¹ | kon (mouse serum albumin [3]): 219000 M⁻¹ s⁻¹ | Kd (cynomolgus serum albumin): 3.2 nM | koff (cynomolgus serum albumin): 0.000229 s⁻¹ | kon (cynomolgus serum albumin): 73700 M⁻¹ s⁻¹ | Kd (rat serum albumin): 12.8 nM | koff (rat serum albumin): 0.00126 s⁻¹ | kon (rat serum albumin): 99700 M⁻¹ s⁻¹ | Kd (human serum albumin [4]): 4.1 nM | koff (human serum albumin [4]): 0.000287 s⁻¹ | kon (human serum albumin [4]): 70700 M⁻¹ s⁻¹ | Kd (rhesus serum albumin [5]): 11.2 nM | koff (rhesus serum albumin [5]): 0.000503 s⁻¹ | kon (rhesus serum albumin [5]): 44900 M⁻¹ s⁻¹ | Kd (mouse serum albumin [6]): 14.6 nM | koff (mouse serum albumin [6]): 0.00113 s⁻¹ | kon (mouse serum albumin [6]): 77000 M⁻¹ s⁻¹
B1: PKE2 Adnectin 2629_E06 (designed binder)
chain: MGVSDVPRDLEVVAATPTSLLISWDAPAVTVRYYRITYGREVQKYSDLGPLYIYQEFTVPGSKSTATISGLKPGVDYTITVYAVTGSGESPASSKPISINYRTEIDKPSQHHHHHH
notes: 10Fn3 domain with modified CD loop; the entry includes the His6 tail; also called ADX_2629_E06
